The values that follow come from patent US20240083971A1, “IMMUNE EFFECTOR CELL COVALENT IMMUNE RECRUITING (CIR) MOLECULES AND METHODS AND USES THEREOF” (McMaster University, priority 2022, published 2024).

The target in series [1] is T1, CD64 (Homo sapiens, UniProt P12314). Briefly: Kon (M^-1 s^-1). On the procedure: (§1) Table printed on a drawing sheet, FIG. 8A
Head of the field: Kon (M^-1 s^-1)
(§2) The patent's description of the figure: FIG. 8A-8B depicts results for the CP-33(N-term “Y” insertion mutant). […] (Note: the linker-biotin is attached to the azide; DBCO-Biotin not shown).
(§3) First copying reader's note: The name cp33-nt-tyr is printed with the structure in FIG. 8B on the same sheet; per the description, the BLI kinetics were measured with its linker-biotin conjugate binding to human CD64.
Target sequence in this assay (P12314 16-374 limits assumed): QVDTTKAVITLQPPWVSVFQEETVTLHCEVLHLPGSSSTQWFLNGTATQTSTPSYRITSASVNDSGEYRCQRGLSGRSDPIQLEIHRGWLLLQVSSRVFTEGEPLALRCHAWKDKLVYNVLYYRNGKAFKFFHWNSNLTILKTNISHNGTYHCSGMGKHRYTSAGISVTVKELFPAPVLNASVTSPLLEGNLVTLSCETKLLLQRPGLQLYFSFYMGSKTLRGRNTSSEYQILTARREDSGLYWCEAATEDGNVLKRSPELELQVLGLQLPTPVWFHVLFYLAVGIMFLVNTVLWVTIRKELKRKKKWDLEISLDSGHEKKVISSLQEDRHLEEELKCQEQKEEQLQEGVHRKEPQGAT

Series [2] deals with T1, CD64. Briefly: Koff (s^-1). On the procedure: as §1
Head of the field: Koff (s^-1)
as §2, §3
Target sequence in this assay (P12314 16-374 limits assumed): as above

The nature of series [3]: LC-MS stability in aqueous conditions at room temperature. The following applies: over 27 hours.
Description: The stability of the three sulfonyl fluoride variants in aqueous conditions at room temperature were then assessed using LC-MS. LC-MS measurements were taken over 27 hours and peaks on the UV chromatogram were monitored for CIR degradation (FIG. 19-21).
Series [4] deals with T1, CD64. Briefly: fluorescent SDS-PAGE covalent labelling kinetics of CD64. In kind it is binding. The following applies: 1.6 μM CIR, 800 nM CD64, one-phase association fit. Here is the method:
Dark bands show A647 fluorescence as measured using the Cy5 channel and represent covalent CIR binding. 1.6 μM of CIR was incubated with 800 nM CD64 for different amounts of time before being run on a SDS-PAGE gel.
The fluorescence intensity of each band in FIG. 17A-17C was measured and then compared to the fluorescence intensity of the band at 100% fraction labelled (where the fluorescence intensity reaches a plateau) to make a fraction bound vs time graph. The curve of the graph was fitted to a one-phase association curve in GraphPad Prism 8 to find the Kobs.
The kinetics of the labelling reaction was also investigated using fluorescent SDS-PAGE gels similar to as described above. 1.6 μM of CIR was incubated with 800 nM CD64 for different amounts of time before being run on a SDS-PAGE gel (FIG. 17). The fluorescence intensity of each band was then measured and then compared to the fluorescence intensity of the band at 100% fraction labelled (where the fluorescence intensity reaches a plateau) to make a fraction bound vs time graph (FIG. 18). The curve of the graph was fitted to a one-phase association curve to find the Kobs.
Target sequence in this assay (P12314 16-374): as the sequence (P12314 16-374 limits assumed) above

The target of series [5] is T1, CD64. Briefly: fluorescent SDS-PAGE covalent labelling specificity of sulfonyl fluoride CIRs (CD64, CD16, BSA). In kind it is binding. To be noted: 1.6 μM CIR-A647, 800 nM protein, 7 hours, room temperature. On the procedure:
Dark bands show A647 fluorescence as measured using the Cy5 channel and represent covalent CIR binding. For each sample, 1.6 μM CIR clicked to A647 fluorescent dye was incubated with 800 nM of protein for 7 hours.
The specificity of the three sulfonyl fluoride CIR variations for labelling CD64 were investigated using a fluorescent SDS-PAGE assay similar to as described above (FIG. 16). 1.6 μM CIR clicked to A647 fluorescent dye was incubated with 800 nM of protein for 7 hours at room temperature in the dark. Three different proteins were assayed to test specificity: CD64, CD16, and BSA. The samples were then run on a 4-20% gradient acrylamide gel and fluorescence was measured using the Cy5 channel with an Amersham Typhoon biomolecular imager. Only covalently labelled CIR will remain bound to CD64 in SDS-PAGE giving rise to fluorescent bands.
Target sequence in this assay (P12314 16-374): as the sequence (P12314 16-374 limits assumed) above

The target of series [6] is T2, CD64 on live U937 cells (Homo sapiens, UniProt P12314).
T2 construct: endogenous in cells
T2 sequence (P12314 16-374): as the sequence (P12314 16-374 limits assumed) above
Briefly: CIR-biotin labeling of CD64 on live U937 cells detected with streptavidin-PE. In kind it is cell-based. The following applies: 24 hours at 37° C. with IFNγ. Here is the method: CIR-biotin was incubated with U937 cells for 24 hours at 37° C. along with IFNγ. The cells were then washed and incubated with streptavidin-PE. The streptavidin binds tightly to the biotin on the CIR and the fluorescent PE signal was read. cP33-ct-aryl SuFEx (CT), cP33-int-aryl SuFEx (INT), cP33-nt-aryl SuFEx (NT), and a noncovalent analog were incubated at increasing concentrations.
The ability of the three sulfonyl fluoride CIR variants to label CD64 on the surface of live cells was assayed using CIRs clicked to a biotin handle. CIR-biotin was incubated with U937 cells for 24 hours at 37° C. along with IFNγ. Post reaction, the cells were washed and incubated with streptavidin-PE. The streptavidin binds tightly to the biotin on the CIR and the fluorescent PE signal was read using a BD LSRII flow cytometer (FIG. 24). 100X CIR not labelled with biotin was used as competitor control to assess specificity and covalency (FIG. 25).

Series [7] concerns the target T3, human CD64 (recombinant) (human, UniProt P12314 16-288, limits assumed).
T3 construct: Recombinant protein in solution, or biotinylated on streptavidin biosensors; Some passages print only 'CD64'; also called huCD64; biotinylated huCD64
Briefly: fluorescence SDS-PAGE covalent labelling kinetics, 1.6 µM CIR with 800 nM CD64, one-phase association fit.

Series [8] concerns the target T4, human CD64 (recombinant) (human, UniProt P12314 16-288).
T4 chain: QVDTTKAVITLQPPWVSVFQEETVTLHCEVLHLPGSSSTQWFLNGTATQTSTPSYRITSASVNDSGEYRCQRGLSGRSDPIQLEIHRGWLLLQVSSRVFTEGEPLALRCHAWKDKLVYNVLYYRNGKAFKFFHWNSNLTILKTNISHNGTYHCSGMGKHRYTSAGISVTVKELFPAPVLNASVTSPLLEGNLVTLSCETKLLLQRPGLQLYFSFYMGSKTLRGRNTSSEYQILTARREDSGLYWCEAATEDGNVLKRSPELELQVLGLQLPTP
Briefly: BLI; 25 nM CD64.

Series [9] concerns the target T4, human CD64 (recombinant). Briefly: BLI; 100 nM CD64.
The target in series [10] is T4, human CD64 (recombinant). Briefly: BLI; 12.5 nM CD64.
Series [11] has as its target T4, human CD64 (recombinant). Briefly: BLI; 50 nM CD64.
The target in series [12] is T4, human CD64 (recombinant). Briefly: BLI.
In series [13] the target is T4, human CD64 (recombinant). Briefly: BLI; 50 nM CD64.
Series [14] deals with T4, human CD64 (recombinant). Briefly: BLI; 100 nM CD64.
For series [15], the target named is T4, human CD64 (recombinant). Briefly: BLI; 200 nM CD64.

Bridges are numbered along the chain shown (N, C = ends). Primed or numbered codes have the meaning given here. Where no end group is shown, it is not given here. [ ]: non-standard residue; d: D form. The star is where a group is joined. Biotin = O=C1N[C@H]2[C@H](CS[C@H]2CCCCC(=O)*)N1; Benzoyl(3-SO2F) = O=C(c1cccc(S(=O)(=O)F)c1)*; Lys(N3) = [N-]=[N+]=NCCCC[C@H](N)C(=O)O; azido = azide group (monovalent —N3); DBCO′ = not defined here; PEG4′ = not defined here

In turn, `CC(=O)N[C@@H](CCCCN=[N+]=[N-])C(=O)NCC(=O)N[C@@H](Cc1ccc(O)cc1)C(=O)N[C@H](C(=O)N[C@@H](CC(N)=O)C(=O)N[C@@H](CO)C(=O)N[C@H]1CSSC[C@@H](C(=O)NCC(=O)N[C@@H](CC(=O)O)C(=O)N[C@@H](CC(=O)O)C(N)=O)NC(=O)CNC(=O)[C@H](CC(C)C)NC(=O)[C@H](CC(C)C)NC(=O)[C@H](CC(N)=O)NC(=O)[C@@H]2CCCN2C(=O)[C@H](CC(C)C)NC(=O)[C@H](CC(C)C)NC(=O)[C@H](CC(C)C)NC1=O)C(C)C` [cp33-nt-tyr] came in with a kon in series [1] of 332000 M⁻¹ s⁻¹. In addition, the koff in [2] worked out at 0.00711 s⁻¹.
Take “cP33 ct-aryl SuFEx: cP33 peptide with the sulfonyl fluoride group at the C-terminus; SEQ ID NO: 12 ([Lys(N3)]VNSCLLLPNLLGCDGDK(Benzoyl(3-SO2F)); disulfide 5-14; not fully specified)”: the “stability in aqueous conditions (degradation peaks in UV trace)” value in [3] is “some slight degradation peaks by 27 hours”. The Kobs in series [4] is 6.7e-05 s⁻¹. Moreover, in [5], the “covalent labelling preference for CD64 vs CD16 and BSA” value is “greater binding selectivity compared to the other variants”. Also, the “covalent labelling of CD64 on live cells (streptavidin-PE signal)” value in [6] is “specific and effective covalent labelling of CD64 on the surface of live cells”.
Consider “cP33 int-aryl SuFEx: cP33 peptide with the sulfonyl fluoride at an internal position replacing leucine; SEQ ID NO: 14 ([Lys(N3)]VNSCLLLPNK(Benzoyl(3-SO2F))LGCDGD; disulfide 5-14; not fully specified)”, for which the “stability in aqueous conditions (degradation peaks in UV trace)” value in [3] was “noticeable degradation peaks by 27 hours”. In series [4], this molecule registered a Kobs of 9.2e-05 s⁻¹.

B1: cP33-ct-aryl SuFEx (peptide)
peptide: [Lys(N3)]VNSCLLLPNLLGCDGDK(Benzoyl(3-SO2F))
modifications: disulfide 5-14; also: X1 azide clicked to DBCO-A647 or DBCO-biotin
On to B1, for which the Kobs in series [7] was 6.7e-05 s⁻¹.

B2: CP-33(C-term "Y" insertion mutant)-linker-biotin conjugate (peptide)
peptide: XVNSCLLLPNLLGCGDDY
modifications: not fully specified; X1 is K, Ac-K(azido), or absent (azide clicked to DBCO-peg4-biotin); disulfide bond between C5 and C14; C-terminal amidation present or absent
Consider B2, for which the dissociation constant (Kd) in series [8] is 2.6 nM; in [9] it was 4 nM; in [10] it was 2 nM; in series [11] it was 3 nM.

B3: native CP-33-linker-biotin conjugate (peptide)
peptide: {Biotin-PEG4′-DBCO′-azido}-VNSCLLLPNLLGCGDD
modifications: disulfide 4-13; not fully specified
In the case of B3, the Kd in series [12] turned out to be 56 nM.

B4: CP-33(N-term "Y" insertion mutant)-linker-biotin conjugate (peptide)
peptide: XGYVNSCLLLPNLLGCGDD
modifications: not fully specified; X1 is K, Ac-K(azido), or absent (azide clicked to DBCO-peg4-biotin); disulfide bond between C7 and C16; C-terminal amidation present or absent
For B4, the dissociation constant (Kd) in series [13] worked out at 17.9 nM; in [14] it was 18.2 nM; in series [15], 20.8 nM.

B5: cP33-int-aryl SuFEx (peptide)
peptide: [Lys(N3)]VNSCLLLPNK(Benzoyl(3-SO2F))LGCDGD
modifications: disulfide 5-14; also: X1 azide clicked to DBCO-A647 or DBCO-biotin
For the molecule B5, the Kobs in series [7] was 9.2e-05 s⁻¹.
